Experiment in all cases: Kinase Profiling Assay
Common to all, as to assay type: biochemical
What all share (conditions): 100 μM

For assay [1], the target named is ROCK-I (h) (Homo sapiens, UniProt Q13464). An outline of the steps: (§1)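 Scintillation counting quantifies radiolabeled, positively charged substrate retained on a negatively charged filter after kinase reaction with labeled ATP; inhibitor peptide present.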
Assay [2] addresses Axl (h) (Homo sapiens, UniProt P30530). An outline of the steps: as §1
Assay [3] concerns the target T1, PKCβI (h) (Homo sapiens, UniProt P05771).
T1 construct: purchased Millipore
An outline of the steps:
as §1

In assay [4] the target is T2, Hck (h) (Homo sapiens, UniProt P08631).
T2 construct: purchased Millipore
An outline of the steps: as §1

The target of assay [5] is Rsk2 (h) (Homo sapiens, UniProt P51812). An outline of the steps: as §1
The target of assay [6] is T3, PKG1α (h) (Homo sapiens, UniProt Q13976).
T3 sequence (Q13976 1-671): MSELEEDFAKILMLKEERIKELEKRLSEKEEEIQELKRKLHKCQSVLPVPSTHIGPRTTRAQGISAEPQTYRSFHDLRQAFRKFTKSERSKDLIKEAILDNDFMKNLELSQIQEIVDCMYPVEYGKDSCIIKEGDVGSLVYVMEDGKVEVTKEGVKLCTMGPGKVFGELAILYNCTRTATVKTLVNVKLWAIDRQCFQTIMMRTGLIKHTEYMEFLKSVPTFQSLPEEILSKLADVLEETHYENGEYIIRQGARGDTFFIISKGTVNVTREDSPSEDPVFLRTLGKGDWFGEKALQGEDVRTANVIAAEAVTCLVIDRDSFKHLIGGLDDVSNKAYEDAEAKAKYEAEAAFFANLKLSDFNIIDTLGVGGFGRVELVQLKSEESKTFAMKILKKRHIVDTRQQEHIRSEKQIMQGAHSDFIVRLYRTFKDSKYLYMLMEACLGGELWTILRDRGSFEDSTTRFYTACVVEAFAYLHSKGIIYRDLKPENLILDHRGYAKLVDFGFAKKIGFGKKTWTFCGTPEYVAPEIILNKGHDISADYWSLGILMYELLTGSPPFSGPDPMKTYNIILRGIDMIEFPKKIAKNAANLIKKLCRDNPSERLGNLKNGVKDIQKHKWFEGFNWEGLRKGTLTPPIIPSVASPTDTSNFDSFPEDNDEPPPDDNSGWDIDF
An outline of the steps:
as §1

In assay [7] the target is T4, PASK (h) (Homo sapiens, UniProt Q96RG2).
T4 construct: purchased Millipore
An outline of the steps: as §1

Assay [8] addresses Fer (h) (Homo sapiens, UniProt P16591). An outline of the steps:
as §1

Assay [9] addresses T5, TAO1 (h) (Homo sapiens, UniProt Q7L7X3).
T5 sequence (Q7L7X3 1-1001): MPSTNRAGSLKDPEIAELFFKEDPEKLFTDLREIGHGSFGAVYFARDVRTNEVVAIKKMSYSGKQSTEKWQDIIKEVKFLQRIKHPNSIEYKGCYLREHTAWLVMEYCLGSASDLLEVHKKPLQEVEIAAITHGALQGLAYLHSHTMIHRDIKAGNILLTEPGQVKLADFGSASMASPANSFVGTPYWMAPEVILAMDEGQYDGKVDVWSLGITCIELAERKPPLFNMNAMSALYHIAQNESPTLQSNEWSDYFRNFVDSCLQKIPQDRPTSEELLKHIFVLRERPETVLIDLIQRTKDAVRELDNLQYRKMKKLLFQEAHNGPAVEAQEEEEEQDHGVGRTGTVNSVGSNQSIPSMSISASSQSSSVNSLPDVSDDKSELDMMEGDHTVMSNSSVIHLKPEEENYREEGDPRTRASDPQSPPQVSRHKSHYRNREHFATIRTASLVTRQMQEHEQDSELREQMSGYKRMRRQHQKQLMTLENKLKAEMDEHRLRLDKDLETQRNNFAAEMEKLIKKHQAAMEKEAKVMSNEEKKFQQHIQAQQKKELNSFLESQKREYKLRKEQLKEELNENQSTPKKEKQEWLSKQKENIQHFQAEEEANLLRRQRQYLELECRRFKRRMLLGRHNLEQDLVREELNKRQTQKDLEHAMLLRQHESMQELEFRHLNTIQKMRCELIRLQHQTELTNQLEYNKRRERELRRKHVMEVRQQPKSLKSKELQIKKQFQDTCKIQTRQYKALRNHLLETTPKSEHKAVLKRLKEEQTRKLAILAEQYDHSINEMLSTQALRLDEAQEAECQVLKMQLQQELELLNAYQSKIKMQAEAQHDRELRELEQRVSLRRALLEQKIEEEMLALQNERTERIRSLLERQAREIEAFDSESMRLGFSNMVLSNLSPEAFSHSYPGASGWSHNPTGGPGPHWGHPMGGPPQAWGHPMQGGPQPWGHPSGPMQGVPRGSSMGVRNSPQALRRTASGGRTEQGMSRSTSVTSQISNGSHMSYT
An outline of the steps:
as §1

The target of assay [10] is T6, PKCγ (h) (Homo sapiens, UniProt P05129).
T6 construct: purchased Millipore
An outline of the steps: as §1

Assay [11] deals with T7, Txk (h) (Homo sapiens, UniProt P42681).
T7 sequence (P42681 1-527): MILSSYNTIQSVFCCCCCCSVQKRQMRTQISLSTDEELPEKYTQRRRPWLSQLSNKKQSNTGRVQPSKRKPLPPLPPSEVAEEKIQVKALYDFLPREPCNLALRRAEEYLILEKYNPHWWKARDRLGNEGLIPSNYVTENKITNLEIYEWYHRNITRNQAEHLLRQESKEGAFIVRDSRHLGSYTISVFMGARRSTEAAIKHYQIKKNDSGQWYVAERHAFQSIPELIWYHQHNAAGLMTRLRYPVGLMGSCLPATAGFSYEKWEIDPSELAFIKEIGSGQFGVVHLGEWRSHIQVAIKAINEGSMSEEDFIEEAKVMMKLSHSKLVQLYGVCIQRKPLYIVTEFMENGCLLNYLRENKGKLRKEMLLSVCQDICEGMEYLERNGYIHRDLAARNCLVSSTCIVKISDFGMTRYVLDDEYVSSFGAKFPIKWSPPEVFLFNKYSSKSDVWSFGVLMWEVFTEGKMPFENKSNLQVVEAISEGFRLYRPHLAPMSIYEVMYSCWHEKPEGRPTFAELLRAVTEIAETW
An outline of the steps: as §1

Results on 4 sequences are retold here after patent US10500249B2, “Compositions and methods for preventing or treating diseases, conditions, or processes characterized by aberrant fibroblast proliferation and extracellular matrix deposition” (MOERAE MATRIX, INC., priority 2014, dated 2019).

Sequence of ROCK-I (h) (Q13464 whole entry): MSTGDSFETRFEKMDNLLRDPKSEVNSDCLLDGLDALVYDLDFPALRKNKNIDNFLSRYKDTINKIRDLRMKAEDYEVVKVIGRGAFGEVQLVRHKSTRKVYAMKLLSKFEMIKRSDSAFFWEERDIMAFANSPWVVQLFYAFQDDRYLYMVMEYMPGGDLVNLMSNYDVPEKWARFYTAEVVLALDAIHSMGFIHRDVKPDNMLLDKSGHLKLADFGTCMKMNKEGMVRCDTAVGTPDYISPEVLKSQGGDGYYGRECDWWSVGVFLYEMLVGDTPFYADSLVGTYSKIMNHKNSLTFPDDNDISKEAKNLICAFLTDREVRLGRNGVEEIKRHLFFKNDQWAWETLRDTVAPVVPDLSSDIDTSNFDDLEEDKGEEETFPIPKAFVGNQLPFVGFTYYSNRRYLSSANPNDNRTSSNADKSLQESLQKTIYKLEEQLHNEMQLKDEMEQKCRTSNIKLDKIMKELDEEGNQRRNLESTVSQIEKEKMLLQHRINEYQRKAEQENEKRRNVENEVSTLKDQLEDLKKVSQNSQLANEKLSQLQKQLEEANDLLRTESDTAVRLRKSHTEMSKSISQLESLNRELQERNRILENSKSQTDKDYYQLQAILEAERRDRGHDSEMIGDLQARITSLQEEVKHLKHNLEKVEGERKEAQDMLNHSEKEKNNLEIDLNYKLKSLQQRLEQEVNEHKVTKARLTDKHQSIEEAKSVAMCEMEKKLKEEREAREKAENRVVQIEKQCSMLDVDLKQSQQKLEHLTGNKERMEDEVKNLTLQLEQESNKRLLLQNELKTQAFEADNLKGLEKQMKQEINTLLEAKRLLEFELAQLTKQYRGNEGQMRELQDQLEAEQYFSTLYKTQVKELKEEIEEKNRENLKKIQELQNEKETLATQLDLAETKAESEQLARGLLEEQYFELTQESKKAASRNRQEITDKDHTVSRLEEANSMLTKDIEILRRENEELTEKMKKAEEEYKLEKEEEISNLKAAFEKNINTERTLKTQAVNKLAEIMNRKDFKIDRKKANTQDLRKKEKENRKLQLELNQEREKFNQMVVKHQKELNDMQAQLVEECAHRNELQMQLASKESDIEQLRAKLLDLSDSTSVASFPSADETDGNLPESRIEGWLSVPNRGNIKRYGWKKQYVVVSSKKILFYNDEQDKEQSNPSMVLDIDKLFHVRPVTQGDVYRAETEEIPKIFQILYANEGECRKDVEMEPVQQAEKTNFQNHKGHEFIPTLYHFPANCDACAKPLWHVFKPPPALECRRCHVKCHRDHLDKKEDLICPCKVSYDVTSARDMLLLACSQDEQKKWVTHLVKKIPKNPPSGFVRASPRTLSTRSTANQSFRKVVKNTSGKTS
Sequence of Rsk2 (h) (P51812 whole entry): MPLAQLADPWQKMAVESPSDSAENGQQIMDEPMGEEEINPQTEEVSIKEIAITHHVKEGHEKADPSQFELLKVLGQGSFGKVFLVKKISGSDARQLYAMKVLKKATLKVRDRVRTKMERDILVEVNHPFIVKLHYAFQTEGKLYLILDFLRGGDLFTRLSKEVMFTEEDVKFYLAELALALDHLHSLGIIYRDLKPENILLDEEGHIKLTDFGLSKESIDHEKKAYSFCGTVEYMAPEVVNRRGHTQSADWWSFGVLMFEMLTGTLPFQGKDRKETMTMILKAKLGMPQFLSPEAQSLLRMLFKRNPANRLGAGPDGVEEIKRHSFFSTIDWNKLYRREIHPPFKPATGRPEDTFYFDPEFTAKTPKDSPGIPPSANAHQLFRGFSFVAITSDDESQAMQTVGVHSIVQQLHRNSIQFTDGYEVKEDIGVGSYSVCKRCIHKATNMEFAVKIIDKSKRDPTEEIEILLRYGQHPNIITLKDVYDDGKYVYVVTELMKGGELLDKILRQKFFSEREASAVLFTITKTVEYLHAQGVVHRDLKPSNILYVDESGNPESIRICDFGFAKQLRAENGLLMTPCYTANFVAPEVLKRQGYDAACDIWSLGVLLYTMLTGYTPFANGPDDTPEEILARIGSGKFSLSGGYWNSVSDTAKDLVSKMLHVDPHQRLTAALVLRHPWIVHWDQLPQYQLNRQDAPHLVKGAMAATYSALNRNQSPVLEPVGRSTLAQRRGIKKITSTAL
T4 sequence (Q96RG2 whole entry): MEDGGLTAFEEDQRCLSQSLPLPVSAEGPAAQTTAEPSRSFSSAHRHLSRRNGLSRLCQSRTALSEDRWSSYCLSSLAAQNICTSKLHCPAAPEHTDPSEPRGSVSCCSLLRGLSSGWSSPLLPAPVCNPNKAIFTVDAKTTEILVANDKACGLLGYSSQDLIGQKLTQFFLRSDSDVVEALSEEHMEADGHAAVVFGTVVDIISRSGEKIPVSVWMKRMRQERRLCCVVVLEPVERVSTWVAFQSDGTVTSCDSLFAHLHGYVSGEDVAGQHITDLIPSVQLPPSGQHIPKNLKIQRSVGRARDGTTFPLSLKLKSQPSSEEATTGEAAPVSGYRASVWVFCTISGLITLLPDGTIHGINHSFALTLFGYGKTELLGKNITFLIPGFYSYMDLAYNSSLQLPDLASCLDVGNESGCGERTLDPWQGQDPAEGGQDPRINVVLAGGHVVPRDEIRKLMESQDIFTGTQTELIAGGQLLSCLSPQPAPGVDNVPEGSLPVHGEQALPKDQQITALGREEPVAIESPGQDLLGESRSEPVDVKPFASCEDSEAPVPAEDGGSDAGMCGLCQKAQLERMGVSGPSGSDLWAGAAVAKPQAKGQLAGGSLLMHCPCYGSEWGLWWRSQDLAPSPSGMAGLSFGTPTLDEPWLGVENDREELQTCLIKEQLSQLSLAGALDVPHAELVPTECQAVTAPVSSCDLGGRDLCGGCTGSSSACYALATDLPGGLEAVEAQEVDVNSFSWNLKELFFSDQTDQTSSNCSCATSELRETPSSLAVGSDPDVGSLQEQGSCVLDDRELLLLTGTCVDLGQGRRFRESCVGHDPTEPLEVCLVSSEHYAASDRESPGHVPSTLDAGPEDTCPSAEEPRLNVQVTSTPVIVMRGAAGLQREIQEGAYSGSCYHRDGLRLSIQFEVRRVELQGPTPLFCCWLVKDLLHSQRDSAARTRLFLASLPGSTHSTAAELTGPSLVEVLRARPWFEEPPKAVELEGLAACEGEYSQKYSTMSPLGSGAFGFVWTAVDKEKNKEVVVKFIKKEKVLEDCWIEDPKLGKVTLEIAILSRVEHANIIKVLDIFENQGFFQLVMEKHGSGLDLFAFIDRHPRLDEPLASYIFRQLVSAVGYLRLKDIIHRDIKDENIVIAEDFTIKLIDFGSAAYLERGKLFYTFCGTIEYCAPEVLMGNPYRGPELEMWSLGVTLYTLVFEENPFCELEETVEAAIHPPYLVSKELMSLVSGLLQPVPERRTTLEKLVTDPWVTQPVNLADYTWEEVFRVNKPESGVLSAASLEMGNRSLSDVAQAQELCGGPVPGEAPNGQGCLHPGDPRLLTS
T1 sequence (P05771 whole entry): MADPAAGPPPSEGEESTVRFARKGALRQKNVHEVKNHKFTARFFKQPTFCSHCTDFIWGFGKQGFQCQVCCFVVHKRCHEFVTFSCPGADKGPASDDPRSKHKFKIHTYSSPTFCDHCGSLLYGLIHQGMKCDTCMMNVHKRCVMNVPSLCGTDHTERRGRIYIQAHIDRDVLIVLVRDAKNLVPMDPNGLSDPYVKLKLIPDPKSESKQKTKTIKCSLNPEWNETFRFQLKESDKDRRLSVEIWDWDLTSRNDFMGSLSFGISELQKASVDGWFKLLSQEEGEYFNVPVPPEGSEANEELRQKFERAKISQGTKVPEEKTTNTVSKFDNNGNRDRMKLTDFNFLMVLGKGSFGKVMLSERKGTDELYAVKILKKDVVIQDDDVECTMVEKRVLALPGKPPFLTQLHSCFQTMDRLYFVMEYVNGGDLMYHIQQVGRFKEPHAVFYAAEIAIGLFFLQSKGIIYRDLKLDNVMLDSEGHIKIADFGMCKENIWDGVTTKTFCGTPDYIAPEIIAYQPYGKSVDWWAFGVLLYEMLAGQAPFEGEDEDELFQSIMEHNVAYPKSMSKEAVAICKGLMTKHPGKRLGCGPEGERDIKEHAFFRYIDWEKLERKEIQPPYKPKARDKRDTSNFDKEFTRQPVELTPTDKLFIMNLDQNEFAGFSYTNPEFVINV

Take FAKLAARLYRKALARQLGVAA [MMI-0300]: the “% activity” value in [1] was found to be 79%; in [2] it was 52%; in assay [3], 78%; in assay [4], 72%; in assay [5] it was 51%; in assay [6] it was 64%. For the same sequence, the “% activity” value is 29% in assay [7]; 130% in [8]; 82% in assay [9]; 89% in assay [10]; 48% in assay [11].
KAFAKLAARLYRKALARQLGVAA [MMI-0400]: the “% activity” value in [1] stood at 73%; in assay [2] it was 41%; in [3], 78%; in assay [4], 72%; in [5] it was 38%; in assay [6], 58%. The “% activity” value in [7] was 28%; in assay [8], 108%; in assay [9] it was 73%; in assay [10], 79%; in assay [11], 37%.
Turning to “YARAAARQARAKALNRQLGVA (Mammalian) [MMI-0200]”, the “% activity” value in [2] worked out at 99%; in assay [3] it was 98%; in assay [5], 101%; in assay [6], 70%; in assay [7], 60%; in assay [8], 101%. Also, the “% activity” value in assay [10] amounted to 101%; in [11], 98%.
Regarding “HRRIKAWLKKIKALARQLGVAA (Mammalian) [MMI-0500]”, the “% activity” value is on record as 17% in [1]; 12% in assay [2]; 1% in assay [3]; 78% in assay [4]; 14% in assay [5]; 25% in assay [6]. Also, the “% activity” value in [7] came to 9%; in assay [8], 196%; in [9], 24%; in assay [10], 6%; in [11], 10%.
